Measurements from the DeepSol protein solubility set.

Assay: soluble on expression in E. coli; label from the status in PepcDB or PDB records

| Sequence | soluble on expression in E. coli |
| --- | --- |
| MDFAFEKVARDWFVRWSKGRSEKYAGQVMRNFERWVFPAIGNLDIRQVRTADVVGCLRVMEARGIVDTLRKTKNSLKMVFAFAVGSGMMEINPVAQIGSGVFERLEHHHHHH | not soluble |
| MDFASSDGGGRTTTSAKIVVAGGFGVGKTTFVGAVSEINPLRTEAVMTSASAGIDDLTHTGDKTTTTVAMDFGRITLDQDLILYLFGTPGQDRFWFMWDDLVRGAIGAVVLVDTRRLADCFPAVDYFENSGLPFVIALNGFDGHQPYNPEEVREALQIGPDAPIITTDARHRADAKSALITLVEHALMARLRLEHHHHHH | not soluble |
| MDFHIDEKYKGMGKGRTFLIKTYGCQMNAHDTEVMAGILNALGYSATSDINEADVILINTCAIRENAENKVFSEIGNLKHLKKERPDCLIGVCGCMSQEESVVNKILKSYQNVDMVFGLEHHHHHH | not soluble |
| MDFKSSDAIRGPRTEDHLPHTAQAAVKIVIVGGFGVGKTTMVGSVSEIRPLTTEETMTQMGIGVDDNYGSESKTATTVAMDFGRISITEQLVLYLFGTPGQERFWFLWNGLFEGALGAVVLIDTRRLEVSFDVIGRLEERGVPFVIAVNDFPDAPRYPVEDLRGALDLTEDIPIVKCDARRRASSREVLMTLMHFLHSLAVSKTSVLEHHHHHH | not soluble |
| MDFKYDVIVIGAGHAGCEAAAAAANLGSKTCLITMDMNKIGQMSCNPAVGGIAKGQIVREIDALGGQMGLVTDETAIQFRILNRSKGPAMWSPRAQCDRAKFIWSWREKLENTPNLHIWQDTVCELLVENGEVVGLVTLWGVTFKAKCIVLTAGTFLNGLMHVGRHQLPGGRMAEPASYQLTESIARHGIAYGRMKTGTPVRIDARSIHFDLMDTQDGECDFHKFSFMNTSTRHLKQLQCWTCYTNEEVHRILREGLPDSPLFNGQIQSIGPRYCPSIETKIVTFPDKEQHQLFLEPEGETTQELYLNGFSSSLPMDIQIAALKKVPAFKDIVIYRPGYAIEYDYFDPTQLKHSLESKIIKNLFFAGQVNGTTGYEEAGGQGLIAGINAHINCHGGEAFTLARDEAYIGVLIDDLVTKGVDEPYRMFTSRAEYRILLRMDDADMRLTERAYHLGLAREDRYQLMKTKKEALEQIVNFAKNYSMKPALINDALEKLGTTPLRQGCKLIEILNRPQITIENIAEHVPAFQRELEKATAADSDRKEEILEAAEILIKYQGYIDRERMIAEKLARLESIKIKGKFDYASIQSLSTEARQKLVKIDPETIAQASRIPGVSPSDINVLLVLSGR | not soluble |
| MDFLARATAIVGNTMVLMRRFGSPGTQAIGQSPAIPEAQKQGIMTLKMPAAKGWAPGHLPTPAPGLKVNAFARDLEHPRWIEVLPSGDVLVAEARQLPTPPKTLLDRAAQATMRRIRALGDSPNRITLLRDPDGRGEAQERETFLENQSQPFGMALVGDTFYVGNTDGIMAFPYRPGATRLEGPGRRLTTFKPGGHWTRSLIVSPDGRRIYAGVGSLSNIGDDGMEAEEGRAAIWELDLASGQARIYASGLRNPVGLAWEPTTRVLWTVVNERDGLGDETPPDYLTSVEEDGFYGWPYCYWNRIVDDRVPQDPAMVARAITPDYALGGHTASLGLCWVPAGTLPGFGDGMAIGQHGSWNRSKLSGYRLIFVPFANGRPSGPPRDILTGFLSDDEKLAYGRPVGVAVGPDRRSLLLADDVGDVIWRVTGALEHHHHHH | not soluble |
| MDFQIEEDRLGMRIQSETIELTKDEKGVVGISIGGGGPYCPCVYVVQVFDKSPAFKDGRIRCGDEIVAINGITVKGERKSAVAQLIQVSLNPVKITINKLEEANTKGKTLDILIKKVKHKVVEFVDQDSADALGLSRAILTNDPLAEKEKILEENAEFYRHLVAYFGDMFQYQQKISECQKEFGSIFCDLAAHEKQQTANEAFSSFGDKHRMIAKKQSESAVPLQKMVSDLQVYIDHVVPDTRLTIKKYLDVKYEYLSYCLKLKEMDDEEVEFVAIQEPLYRVETGNYEYRVMLRCRQECRARFMKMRDDVMVKIELLDQKHVRDIAQHLAIFAKTMAKCQQECAEILKERIDVPIEIDLEQLNLNMNTSDGKANGEEEMGQDAIVLNDNPLEGDLIDVNDIGSSTEFNEPRISLRRDSQNDTSQPLLGAPDSPLEELSLIDIS | not soluble |
| MDFYYPNLNNDMWRIVGLLFFGDKDHFLNDTRKAFCREQIIDFLNEKGIALFDTASSIRRLQDNASDKFLEVVQPTDIAALLRQLPECRAIVTTGQKATDTLRAQLEVEEPKVGDYAEFVFEGRAMRLYRMPSSSRAYPLALDKKAAAYRIMYQDLQMVILEHHHHHH | soluble |
